Changes are numbered by the printed parent chain. In names and notes the source's numbering stands. Each block holds one binder with its values, some of them ahead of it.
Assays:
[1] = target: T1, murine PCSK9, V5- and His-tagged (mPCSK9v5His) (murine, UniProt Q80W65 35-694); assay: cell-based or functional assay
[2] = target: T1, murine PCSK9, V5- and His-tagged …; assay: kinetic constants of 1B20 Fab; method not named at the table (presumably SPR as in Example 6)
[3] = target: T1, murine PCSK9, V5- and His-tagged …; assay: SPR (Biacore 2000), Fab captured on anti-Fab IgG, PCSK9 in flow; mean N=3
Procedure: Anti-Fab IgG (Human specific) (Sigma, catalog #I5260) was covalently coupled to surfaces 1 and 2 of a Sensor Chip CM5 via primary amine groups, using the immobilization wizard with the “Aim for immobilization” option using Biacore™ Amine Coupling Kit (cat #BR-1000-50. A target immobilization of 5000 RU was specified. The wizard uses a 7 minute activation with a 1:1 mixture of 100 mM NHS (N-Hydroxysuccinimide) and 400 mM EDC (1-ethyl-3-(3-dimethylaminopropyl)-carbodiimide), injects the ligand in several pulses to achieve the desired level, then deactivates the remaining surface with a 7 minute pulse of ethanolamine.
Each Fab was captured by flowing a 500 ng/ml solution at 5 or 10 μl/min for 1-1.5 minutes to reach a target RL for an Rₘₐₓ of 100-150 RU for the reaction. 5-10 concentrations of hPCSK9v5His or mPCSK9v5His antigens were flowed across the surface at 30 μl/minute for 3-4 minutes. 15-60 minutes dissociation time was allowed before regeneration of the Anti-Fab surface with a 30 second pulse of 10 mM glycine pH 2.0.

[4] = target: T1, murine PCSK9, V5- and His-tagged …; assay: SPR (Biacore 2000), IgG captured on goat anti-human IgG, PCSK9 in flow; mean N=2
Procedure: A goat Anti-Human IgG (Caltag, catalog #H10700) was covalently coupled to surfaces 1 and 2 of a Sensor Chip CM5 via primary amine groups, using the immobilization wizard with the “Aim for immobilization” option using Biacore™ Amine Coupling Kit (cat #BR-1000-50. A target immobilization of 5000 RU was specified. The wizard uses a 7 minute activation with a 1:1 mixture of 100 mM NHS (N-Hydroxysuccinimide) and 400 mM EDC (1-ethyl-3-(3-dimethylaminopropyl)-carbodiimide), injects the ligand in several pulses to achieve the desired level, then deactivates the remaining surface with a 7 minute pulse of ethanolamine.
IgG was captured by flowing a 10 nM solution at 10 μl/min for 1-1.5 minutes to reach a target RL for an Rₘₐₓ of 100-150 RU for the reaction. 5-10 concentrations of hPCSK9v5His or mPCSK9v5His antigens were flowed across the surface at 30 or 60 μl/minute for 4 minutes. 15-60 minutes dissociation time was allowed before regeneration of the Anti-IgG surface with a 60 second pulse of 10 mM Glycine pH 1.7.

[5] = target: T2, human PCSK9, V5- and His-tagged (hPCSK9v5His) (human, UniProt Q8NBP7 31-692); assay: SPR (Bio-Rad ProteOn), Fab against human PCSK9-V5-His
T2 construct: Recombinant secreted protein; Peptides 31-49 (prodomain) and 153-; also called wt-hPCSK9; wt-PCSK9; not shown: V5 and His tags
T2 sequence (Q8NBP7 31-692 limits assumed): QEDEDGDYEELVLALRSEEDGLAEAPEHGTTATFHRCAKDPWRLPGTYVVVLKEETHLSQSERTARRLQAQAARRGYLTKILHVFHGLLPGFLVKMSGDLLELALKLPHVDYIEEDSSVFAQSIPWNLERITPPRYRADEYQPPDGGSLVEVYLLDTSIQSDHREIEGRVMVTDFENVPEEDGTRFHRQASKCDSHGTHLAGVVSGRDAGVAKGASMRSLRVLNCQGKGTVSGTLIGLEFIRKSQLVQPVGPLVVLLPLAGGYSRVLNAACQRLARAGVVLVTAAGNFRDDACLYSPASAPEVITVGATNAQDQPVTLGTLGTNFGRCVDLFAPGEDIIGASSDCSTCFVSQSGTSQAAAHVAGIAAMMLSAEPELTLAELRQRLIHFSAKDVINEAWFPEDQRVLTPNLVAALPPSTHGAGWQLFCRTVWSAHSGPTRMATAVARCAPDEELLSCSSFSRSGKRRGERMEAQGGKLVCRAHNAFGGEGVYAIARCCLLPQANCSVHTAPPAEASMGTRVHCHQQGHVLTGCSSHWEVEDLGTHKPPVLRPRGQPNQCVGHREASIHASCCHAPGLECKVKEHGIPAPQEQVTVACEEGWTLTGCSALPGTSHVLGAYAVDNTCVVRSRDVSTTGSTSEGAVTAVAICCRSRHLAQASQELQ

T1 sequence (Q80W65 35-694 limits assumed): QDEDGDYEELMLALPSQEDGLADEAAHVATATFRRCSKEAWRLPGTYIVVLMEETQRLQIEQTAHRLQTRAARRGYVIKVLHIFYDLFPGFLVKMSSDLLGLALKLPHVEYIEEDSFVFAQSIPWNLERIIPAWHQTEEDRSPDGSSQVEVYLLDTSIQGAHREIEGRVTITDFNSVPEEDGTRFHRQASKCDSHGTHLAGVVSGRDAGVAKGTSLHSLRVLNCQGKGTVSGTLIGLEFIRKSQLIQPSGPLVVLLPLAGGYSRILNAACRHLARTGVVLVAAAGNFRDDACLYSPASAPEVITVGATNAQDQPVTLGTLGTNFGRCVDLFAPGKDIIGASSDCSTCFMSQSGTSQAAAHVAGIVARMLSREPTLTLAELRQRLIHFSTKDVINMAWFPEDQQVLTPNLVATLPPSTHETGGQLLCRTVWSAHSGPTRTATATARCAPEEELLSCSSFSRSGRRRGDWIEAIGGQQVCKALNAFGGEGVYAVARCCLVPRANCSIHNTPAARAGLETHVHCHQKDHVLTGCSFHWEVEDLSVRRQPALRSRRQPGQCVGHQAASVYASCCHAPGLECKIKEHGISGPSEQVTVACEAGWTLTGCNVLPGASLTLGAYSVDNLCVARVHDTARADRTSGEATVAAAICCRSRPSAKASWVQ

IC50, Exopolar assay (PCSK9-dependent loss of cellular LDL uptake) [1]: 152 nM | Ka [2]: 2e+09 M⁻¹ | Kd [2]: 0.51 nM | koff [2]: 7.18e-05 s⁻¹ | kon [2]: 141000 M⁻¹ s⁻¹
B1: 1B20 Fab (Fab, V domains shown)
VH: QVQLVQSGAEVKKPGESLKISCKGSGYSFTNYWISWVRQMPGKGLEWMGIIYPGDSYTNYSPSFQGQVTISADKSISTAYLQWSSLKASDTAMYYCARDYWYKPLFDIWGQGTLVTVSS
VL: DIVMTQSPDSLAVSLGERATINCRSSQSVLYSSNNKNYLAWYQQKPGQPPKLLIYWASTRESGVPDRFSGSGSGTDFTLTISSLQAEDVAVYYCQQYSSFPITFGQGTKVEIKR

IC50, inhibition of PCSK9-dependent loss of cellular LDL uptake (Exopolar assay, HEK cells, PCSK9 5 ug/ml) [1]: 97 nM | Kd [3]: 3.35 nM
B2: m2CX1D05 Fab (Fab, V domains shown)
VH: QVQLVQSGAEVKKPGSSVKVSCKASGGTFNSHAISWVRQAPGQGLEWMGGINPILGIANYAQKFQGRVTITADESTSTAYMELSSLRSEDTAVYYCARHYEIQIGRYGMNVYYLMYRFASWGQGTLVTVSS
VL: DIQMTQSPSSLSASVGDRVTITCRASQGIRSALNWYQQKPGKAPKLLIYNGSTLQSGVPSRFSGSGSGTDFTLTISSLQPEDFAVYYCQQFDGDPTFGQGTKVEIKR
notes: also called Fab 1D05; mPCSK9 2CX1D05 Fab

IC50, inhibition of PCSK9-dependent loss of cellular LDL uptake (Exopolar assay, HEK cells, PCSK9 5 ug/ml) [1]: 85 nM | Kd [4]: 3.2 nM
B3: 1D05 IgG2m4 (antibody, V domains shown)
VH: B2 VH
VL: B2 VL
notes: also called M2CX1D05 (IgG); IgG 1D05

Kd [5]: 1.52 nM
B4: 1D05 Fab variant M48L (Fab, V domains shown)
VH: B2 VH with M48L
VL: B2 VL
notes: Tested as a Fab, with only the heavy chain mutated

Kd [5]: 1.13 nM
B5: 1D05 Fab variant M48L/M109L/M115L (Fab, V domains shown)
VH: B2 VH with M48L, M109L, M115L
VL: B2 VL
notes: as for B4

Kd [5]: 0.615 nM
B6: 1D05 Fab variant N50Q (Fab, V domains shown)
VH: B2 VH
VL: B2 VL with N50Q
notes: Tested as a Fab, with only the light chain mutated

Kd [5]: 1.95 nM
B7: 1D05 Fab variant M48V (Fab, V domains shown)
VH: B2 VH with M48V
VL: B2 VL
notes: as for B4

Kd [5]: 1.45 nM
B8: 1D05 Fab variant H99Y (Fab, V domains shown)
VH: B2 VH with H99Y
VL: B2 VL
notes: as for B4

Kd [5]: 2.13 nM
B9: 1D05 Fab variant N50T (Fab, V domains shown)
VH: B2 VH
VL: B2 VL with N50T
notes: as for B6

Kd [5]: 2.58 nM
B10: 1D05 Fab variant N50Y (Fab, V domains shown)
VH: B2 VH
VL: B2 VL with N50Y
notes: as for B6

Kd [5]: 3.42 nM
B11: 1D05 Fab variant N50D (Fab, V domains shown)
VH: B2 VH
VL: B2 VL with N50D
notes: as for B6

Kd [5]: 2.01 nM
B12: 1D05 Fab variant H32Y (Fab, V domains shown)
VH: B2 VH with H32Y
VL: B2 VL
notes: Site-directed mutant of 1D05, tested as a Fab, with only the heavy chain mutated

Kd [5]: 2.06 nM
B13: 1D05 Fab variant M48A (Fab, V domains shown)
VH: B2 VH with M48A
VL: B2 VL
notes: as for B4

Source: patent publication US20120301461A1 (Merck Sharp & Dohme, published 2012)
